This passage reports IC50 of CCL1 blocking (Ca2+ influx, CHO/hCCR8.Gna15 cells), induction fold and induction fold, mFcgRIV Jurkat NFAT-luciferase reporter with CHO/hCCR8, results from patent US20250297019A1.

For the assay, the target named is human CCR8 (human) (UniProt P51685). In words: cell-based or functional assay.

B1: murine anti-human CCR8 mAb 433H (BD Biosciences) (antibody, from another filing, mouse IgG2a, V domains shown)
VH: EVQLVETGGGLVQPKGSLRLSCAASGFPFNTFAMNWVRQAPGKGLEWLARIRSKSNNYATYYADSVKDRFTISRDDSRRMLYLLMNNVKFEDTAIYYCVRGKENNYGYAMDYWGQGTSVTVSS
VL: DIVMTQAAPSVPVTPGESVSISCRSSQSLLHSNGNTYLYWFLQRPGQSPQLLIYRMSNLASGVPDRFSGSGSGTAFTLRISRVEAEDVGVYYCMQHLEYPFTFGIGTKLELKR
With B1, the IC50 of CCL1 blocking (Ca2+ influx, CHO/hCCR8.Gna15 cells) was found to be 17.6 nM; the induction fold at plateau (about 40 nM antibody), mFcgRIV Jurkat reporter with CHO/hCCR8 was 13 fold; the induction fold, mFcgRIV Jurkat NFAT-luciferase reporter with CHO/hCCR8, at about 1 nM antibody is > 12 fold.
